Reference: patent US20260159561A1 (MyNeuroCure Oy, priority 2017, published 2026)
Entries after “also recorded” stand apart in the source; their conditions may differ.

Legend:
SOD1-G93A mice [1] = experiment: SOD1-G93A mouse ALS model, 4-week chronic intracerebroventricular infusion; type: in vivo; details: i.c.v. infusion 1.5 μg/24 h for 4 weeks, vs PBS
Source text: (§1) Transgenic SOD1 G93A mice served as a transgenic mouse model for ALS in this study. Transgenic mice containing various human SOD1 mutations develop progressive neurodegeneration and motoneuron (MN) death, providing an animal model that has been commonly used for preclinical trials and that has greatly contributed to the understanding of FALS pathogenesis (Gurney et al., 1994). […] In these mice hind limb weakness and tremulous movement appear as initial symptoms at 8-10 week of age, followed by major symptoms such as progressive motor paralysis and neurogenic amyotrophy (Shibata 2001). […] Transgenic expression was analyzed by DNA tail tests and PCR, using specific oligonucleotides and conditions as done previously by others (see homepage Jackson Lab). […]
In the chronic infusion experiment, 12-week-old SOD1 mice were inserted a brain infusion cannula (connected via catheter-tubing to an Alzet osmotic minipump) to the right lateral ventricle under isoflurane anesthesia. […] Motor behavior was evaluated with rotarod. Mice were evaluated for clinical signs and body weight changes.
(§2) Clinical scoring for SOD1 mice was done using instructions from Jackson laboratory. […] Animals were scored by lifting them gently by the base of their tails and observing them for tremors, stiffness and their ability to extend their limbs. […]

[2] = test system: Huntington's disease rat model (quinolinic acid); experiment: Quinolinic acid Huntington's disease rat model, rotarod and grip strength; type: in vivo; details: single intrastriatal injection 2 weeks after QA, vs QA+PBS
Source text: Adult Wistar rats received a single, unilateral intrastriatal injection of quinolinic acid (QA) 225 nmol into coordinates: A/P+0.7; L/M+2.8; D/V −6.0. Quinolinic acid is a toxin that induces striatal neuron death by an excitotoxic process. […] Rats were randomized to groups before the treatments started. Rotarod and grip strength tests were done weekly.

SOD1-G93A mice [3] = experiment: SOD1-G93A mouse ALS model, single intracerebroventricular injection; type: in vivo; details: females, vs PBS
Source text: as §1, with “2001). These mice subsequently show disability of gait, eating and drinking and die within some weeks, usually at 14-16 week of age.” for “2001).”
Mice were then evaluated for signs of disease and body weight changes twice a week. […]
as §2

[4] = test system: rat model of cerebral ischemia
Experimental: Male Sprague Dawley rats (weight 230-270 g, Envigo, Netherlands) were used for the experiments which were conducted according to the 3R principles of EU directive 2010/63/EU on the care and use of experimental animals, local laws and regulations, and were approved by the national Animal Experiment Board of Finland All experiments were performed in a blinded manner and the rats were assigned to different treatment groups randomly. Rats were anesthesized with chloral hydrate (0.4 g/kg, i.p). […] Briefly, the bilateral CCAs were identified and isolated through a ventral midline cervical incision. Rats were placed in stereotaxic apparatus and a craniotomy was made in the right hemisphere. The right (MCA) was ligated with a 10-0 suture and bilateral common carotids (CCA) were ligated with non-traumatic arterial clamps for 60 minutes. After sixty minutes of ischemia, the suture around the MCA and arterial clips on CCAs were removed to introduce a reperfusional injury. After recovery from anesthesia, the rats were returned to their home cage. Body temperatures during and after surgery were maintained at 37° C.
To test the neuroprotective effect of subcutaneous C-CDNF, 50 μg of C-CDNF was given 30-50 min before dMCA occlusion and immediately after reperfusion in volume of 100 μl s.c. Phosphate-buffered saline (PBS) was used as vehicle control. The rats were euthanized 2 days after dMCAo to measure the infarction volume by 2% 2,3,5-triphenyltetrazolium chloride (TTC; Sigma Aldrich, St. Louis, MO) staining. Rats were decapitated and the brains were removed and sliced into 2.0-mm-thick sections using an acrylic rat brain block. The brain slices were incubated in a 2% TTC solution (Sigma, St. Louis, MO, USA) for 15 min at room temperature and then transferred into a 4% paraformaldehyde solution for fixation. The area of infarction in each slice was measured with a digital scanner and ImageJ software. The volume of infarction in each animal was obtained from the product of average slice thickness (2 mm) and sum of infarction areas in rostral brain slices examined. […]

B1: C-CDNF: Human C-CDNF, SEQ ID NO: 4: C-terminal domain of mature CDNF, amino acid 101 to 161; recombinant, Histidine tag at C-terminus (protein, listed as Homo sapiens)
chain: KYEKTLDLASVDLRKMRVAELKQILHSWGEECRACAEKTDYVNLIQELAPKYAATHPKTEL
- rotarod performance (motor coordination) (SOD1-G93A mice [1]; significant week 13 until week 19): improves motor coordination
- relative changes in body weight (SOD1-G93A mice [1]; weeks 18 and 19): Significant differences between treatments in body weight
- rotarod latency to fall (motor behavior) ([2]; equimolar to CDNF 10 micrograms): improved motor behavior statistically significantly; also recorded: improved motor performance in both rotarod and grip strength tests
- grip strength (left paw) ([2]; 3 and 5 week time points): significantly improved performance at 3 and 5 week time points; also recorded: improved motor performance in both rotarod and grip strength tests
- clinical score (SOD1-G93A mice [3]; single i.c.v. 3.75 μg at 13 weeks of age): statistically significantly better clinical scores
- rotarod latency to fall (SOD1-G93A mice [3]; single i.c.v. 3.75 μg, 4-40 rpm, cut-off 4 min): improves the motor behavior
- infarction volume ([4]; 50 μg s.c. before dMCA occlusion and after reperfusion, rostral part of cerebral cortex, 2 days after dMCAo): decreases the infarction volume
- lesion size, smaller than in vehicle treated rats ([4]; 50 μg s.c. before occlusion and after reperfusion, vs PBS): about 50%
- blood pressure and heart rate ([4]; rat, in vivo): does not affect blood pressure and heart rate
